We go through 17 molecules from patent publication US20140286957A1 (Teva, published 2014).

The test has as its target T1, Human CD1d/β2M (human, UniProt P15813 20-301; P61769 21-119).
T1 construct: also called hCD1d; recombinant human CD1d
As to the kind of experiment: SPR, transfection supernatant.

Changes are numbered by the printed parent chain.

B1: 401.11.87 (antibody, name in Kabat numbering, V domains shown)
VH: QVQLVGSGGGLVKPGRSLRLSCAASGFTFDDYAMHWVRQAPGKGLEWVATIIWNSAIIGYADSVKGRFIVSRDNAKNSLYLQMNSLRAEDMALYYCAKDMCSSSSCPDGYFDSWGQGTLVTVSS
VL: DIQMTQSPSSVSASVGDRVTITCRASQHISSWLAWYQQKPGKAPNLLIYAASSLQSGVSSRFSGSGSGTDFTLTISSLQPEDFATYYCQQANRFPLTFGGGTKLEIKR
As to B1, the equilibrium dissociation constant (Kd) stood at 7.13 nM.

B2: 401.11.111 (antibody, name in Kabat numbering, V domains shown)
VH: B1 VH with S105G, D108R
VL: B1 VL
B2 returned a Kd of under 0.01 nM.

B3: 401.11.89 (antibody, name in Kabat numbering, V domains shown)
VH: B1 VH with S105D
VL: B1 VL
B3 yielded a Kd of 5.3 nM.

B4: 401.11.112 (antibody, name in Kabat numbering, V domains shown)
VH: B1 VH with S105G, D108S
VL: B1 VL
Take B4: the Kd was 2.43 nM.

B5: 401.11.116 (antibody, name in Kabat numbering, V domains shown)
VH: B1 VH with S105G, D108F
VL: B1 VL
Molecule B5 yielded a Kd of 37.7 nM.

B6: 401.11.104 (antibody, name in Kabat numbering, V domains shown)
VH: B1 VH with S105G, P107L
VL: B1 VL
Molecule B6 yielded a dissociation constant (Kd) of 0.487 nM.

B7: 401.11.107 (antibody, name in Kabat numbering, V domains shown)
VH: B1 VH with S105G, P107Y
VL: B1 VL
Consider B7, for which binding was put at a Kd of 0.996 nM. Against the preceding molecule, the Kd is about 2-fold higher.

B8: 401.11.103 (antibody, name in Kabat numbering, V domains shown)
VH: B1 VH with S105G, P107G
VL: B1 VL
In turn, B8 had a Kd of under 0.01 nM.

B9: 401.11.113 (antibody, name in Kabat numbering, V domains shown)
VH: B1 VH with S105G, D108G
VL: B1 VL
B9 displayed a Kd of 0.679 nM.

B10: 401.11.102 (antibody, name in Kabat numbering, V domains shown)
VH: B1 VH with S105G, P107T
VL: B1 VL
As to B10, the Kd was found to be 0.457 nM.

B11: 401.11.88 (antibody, name in Kabat numbering, V domains shown)
VH: B1 VH with S105A
VL: B1 VL
Turning to B11, binding was characterised by a dissociation constant (Kd) of 1.89 nM.

B12: 401.11.115 (antibody, name in Kabat numbering, V domains shown)
VH: B1 VH with S105G, D108Y
VL: B1 VL
For B12, the dissociation constant (Kd) came out at 0.667 nM.

B13: 401.11.109 (antibody, name in Kabat numbering, V domains shown)
VH: B1 VH with S105G, P107W
VL: B1 VL
On to B13, for which the binding result is given as “no binding”.

B14: 401.11.101 (antibody, name in Kabat numbering, V domains shown)
VH: B1 VH with S105G, P107S
VL: B1 VL
Molecule B14 registered a Kd of under 0.01 nM.

B15: 401.11.110 (antibody, name in Kabat numbering, V domains shown)
VH: B1 VH with S105G, D108K
VL: B1 VL
Take B15: the Kd came out at 0.247 nM. That is a sub-nanomolar value.

B16: 401.11.108 (antibody, name in Kabat numbering, V domains shown)
VH: B1 VH with S105G, P107R
VL: B1 VL
As for B16, the Kd is under 0.01 nM.

B17: 401.11.90 (antibody, name in Kabat numbering, V domains shown)
VH: B1 VH with S105K
VL: B1 VL
Take B17: the Kd was under 0.01 nM.
